According to patent US20180355009A1:
“And” between values parts separate entries of the source, which are not always exact repeats. Equal values may be shown once.

Biological target: human IL-22 receptor complex IL22R1 and IL10R2, overexpressed on HEK 293 cells (human) (UniProt Q8N6P7)
Experiment: cell-based or functional assay

Chain of human IL-22 receptor complex IL22R1 and IL10R2, overexpressed on HEK 293 cells (human) (Q8N6P7 16-574, chain 1 of 2): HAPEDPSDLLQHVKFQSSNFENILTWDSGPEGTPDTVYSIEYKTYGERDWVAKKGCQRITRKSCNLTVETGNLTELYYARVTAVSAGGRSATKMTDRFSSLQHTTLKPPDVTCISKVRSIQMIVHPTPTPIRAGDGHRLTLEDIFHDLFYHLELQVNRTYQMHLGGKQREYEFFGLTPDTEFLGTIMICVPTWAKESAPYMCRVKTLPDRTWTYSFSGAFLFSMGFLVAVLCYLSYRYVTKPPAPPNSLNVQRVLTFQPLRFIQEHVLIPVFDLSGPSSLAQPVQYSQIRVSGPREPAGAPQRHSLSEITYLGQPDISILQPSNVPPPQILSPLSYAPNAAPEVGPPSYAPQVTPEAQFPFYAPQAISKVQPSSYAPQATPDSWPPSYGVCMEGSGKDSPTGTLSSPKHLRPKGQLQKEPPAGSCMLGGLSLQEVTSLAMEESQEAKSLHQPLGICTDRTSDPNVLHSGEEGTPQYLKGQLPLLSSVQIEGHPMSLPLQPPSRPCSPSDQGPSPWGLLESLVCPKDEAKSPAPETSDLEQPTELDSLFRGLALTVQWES
Chain of human IL-22 receptor complex IL22R1 and IL10R2, overexpressed on HEK 293 cells (human) (Q08334 20-325, chain 2 of 2, further chain): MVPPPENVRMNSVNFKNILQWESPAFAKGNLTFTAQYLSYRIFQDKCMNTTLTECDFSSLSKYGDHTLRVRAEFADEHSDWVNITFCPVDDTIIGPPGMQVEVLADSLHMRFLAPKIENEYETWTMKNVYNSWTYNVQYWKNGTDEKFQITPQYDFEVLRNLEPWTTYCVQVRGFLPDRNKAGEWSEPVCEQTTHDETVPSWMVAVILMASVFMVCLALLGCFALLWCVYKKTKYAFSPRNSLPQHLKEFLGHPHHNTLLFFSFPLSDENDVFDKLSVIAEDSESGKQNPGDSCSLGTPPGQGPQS

potency in the STAT3 luciferase reporter assay, against the IL-22 Fc fusion proteins: 2 fold and 3 fold
Substance: native IL-22 protein produced in CHO cells (from UniProt Q9GZX6 34-179) (ligand)
